Consider one molecule from article PMC4484435, “Leucine-rich α-2-glycoprotein promotes TGFβ1-mediated growth suppression in the Lewis lung carcinoma cell lines” (Oncotarget, 2015).

For the assay, the target named is T1, transforming growth factor beta 1 (UniProt P01137 279-390).
T1 construct: Transforming growth factor beta 1 (TGFβ1), the mature growth factor cut from its precursor; The source of the TGFβ1 is told only for the cell assays (PeproTech); also called TGFβ1; TGFβ; source: bought: PeproTech (cell assays)
Nature of the assay: SPR; BIAcore 3000; which partner was immobilised and the conditions are not given. The settings on record: both partners purified.

T1 sequence (P01137 279-390): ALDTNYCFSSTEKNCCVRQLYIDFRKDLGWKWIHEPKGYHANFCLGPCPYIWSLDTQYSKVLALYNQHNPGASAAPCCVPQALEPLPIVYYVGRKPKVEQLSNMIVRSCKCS

B1: Leucine-rich α2-glycoprotein (natural protein)
chain: LKECLILQSAEGSTVSCHGPTEFPSSLPADTVHLSVEFSNLTQLPAAALQGCPGLRELHLSSNRLQALSPELLAPVPRLRALDLTRNALRSLPPGLFSTSANLSTLVLRENQLREVSAQWLQGLDALGHLDLAENQLSSLPSGLLASLGALHTLDLGYNLLESLPEGLLRGPRRLQRLHLEGNRLQRLEDSLLAPQPFLRVLFLNDNQLVGVATGSFQGLQHLDMLDLSNNSLSSTPPGLWAFLGRPTRDMQDGFDISHNPWICDKNLADLCRWLVANRNKMFSQNDTRCAGPEAMKGQRLLDVAELGSL
In the case of B1, the affinity, expressed as Kd, was 2320 nM. In other words, the single-digit micromolar range.
